Measured values published in patent US20060286609A1 (BIOCHECK, published 2006).
Residue numbers refer to the chain shown, from its start.

Legend:
Mouse Id4: Histidine [1] = target: T1, Mouse Id4: Histidine (mouse, UniProt P41139 1-161, limits assumed); assay: ELISA, coated antigen, Ab 0.010 ug/ml
T1 construct: E. coli fusion protein (vector pGW07); also called m-Id4: His; not shown: His-tag
T1 sequence (looked up): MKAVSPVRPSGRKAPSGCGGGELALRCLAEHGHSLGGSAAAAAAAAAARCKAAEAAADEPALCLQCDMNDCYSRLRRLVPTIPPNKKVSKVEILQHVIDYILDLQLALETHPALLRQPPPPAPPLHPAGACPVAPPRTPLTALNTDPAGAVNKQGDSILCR

Mouse Id1: Histidine [2] = target: T2, Mouse Id1: Histidine (mouse, UniProt P20067-2 1-148); assay: ELISA, coated antigen, Ab 0.010 ug/ml
T2 construct: E. coli fusion protein (vector pGW07); also called m-Id1-His; not shown: His-tag
T2 sequence: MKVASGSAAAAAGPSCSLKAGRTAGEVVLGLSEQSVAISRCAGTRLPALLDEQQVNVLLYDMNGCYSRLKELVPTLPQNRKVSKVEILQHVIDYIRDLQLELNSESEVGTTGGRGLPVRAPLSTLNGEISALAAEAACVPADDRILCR

Human Id2: Histidine [3] = target: T3, Human Id2: Histidine (human, UniProt Q02363 1-134, limits assumed); assay: ELISA, coated antigen, Ab 0.010 ug/ml
T3 construct: E. coli fusion protein (vector pGW07); also called h-Id2: His; not shown: His-tag
T3 sequence (looked up): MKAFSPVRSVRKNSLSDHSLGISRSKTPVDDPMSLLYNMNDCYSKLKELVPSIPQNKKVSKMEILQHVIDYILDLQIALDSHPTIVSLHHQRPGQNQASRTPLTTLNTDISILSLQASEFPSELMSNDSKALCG

Mouse Id2: Histidine [4] = target: T4, Mouse Id2: Histidine (mouse, UniProt P41136 1-134, limits assumed); assay: ELISA, coated antigen, Ab 0.010 ug/ml
T4 construct: E. coli fusion protein (vector pGW07); also called m-Id2: His; not shown: His-tag
T4 sequence (looked up): T3 sequence (looked up) with S60T, A131V

Human Id3: Histidine [5] = target: T5, Human Id3: Histidine (human, UniProt Q02535 1-119, limits assumed); assay: ELISA, coated antigen, Ab 0.010 ug/ml
T5 construct: E. coli fusion protein (vector pGW07); also called h-Id3: His; not shown: His-tag
T5 sequence (looked up): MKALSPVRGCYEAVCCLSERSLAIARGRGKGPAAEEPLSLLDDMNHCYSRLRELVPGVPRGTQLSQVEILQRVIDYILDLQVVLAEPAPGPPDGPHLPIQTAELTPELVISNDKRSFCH

Human Id4: Histidine [6] = target: T6, Human Id4: Histidine (human, UniProt P47928 1-161, limits assumed); assay: ELISA, coated antigen, Ab 0.010 ug/ml
T6 construct: E. coli fusion protein (vector pGW07); also called h-Id4: His; not shown: His-tag
T6 sequence (looked up): T1 sequence (looked up) with L125H, A130T, V133A

Mouse Id3: Histidine [7] = target: T7, Mouse Id3: Histidine (mouse, UniProt P41133 1-119, limits assumed); assay: ELISA, coated antigen, Ab 0.010 ug/ml
T7 construct: E. coli fusion protein (vector pGW07); also called m-Id3: His; not shown: His-tag
T7 sequence (looked up): T5 sequence (looked up) with G31S, A33S, A34T, N112K

Mouse Id4: Histidine [8] = target: T1, Mouse Id4: Histidine; assay: ELISA, coated antigen, Ab 0.500 ug/ml
Mouse Id1: Histidine [9] = target: T2, Mouse Id1: Histidine; assay: ELISA, coated antigen, Ab 0.500 ug/ml
Human Id2: Histidine [10] = target: T3, Human Id2: Histidine; assay: ELISA, coated antigen, Ab 0.500 ug/ml
Mouse Id2: Histidine [11] = target: T4, Mouse Id2: Histidine; assay: ELISA, coated antigen, Ab 0.500 ug/ml
Human Id3: Histidine [12] = target: T5, Human Id3: Histidine; assay: ELISA, coated antigen, Ab 0.500 ug/ml
Human Id4: Histidine [13] = target: T6, Human Id4: Histidine; assay: ELISA, coated antigen, Ab 0.500 ug/ml
Mouse Id3: Histidine [14] = target: T7, Mouse Id3: Histidine; assay: ELISA, coated antigen, Ab 0.500 ug/ml
Human Id2: Histidine [15] = target: T3, Human Id2: Histidine; assay: ELISA, coated antigen, Ab 0.000 ug/ml (blank, diluent only)
Human Id4: Histidine [16] = target: T6, Human Id4: Histidine; assay: as above
Mouse Id3: Histidine [17] = target: T7, Mouse Id3: Histidine; assay: as above
Mouse Id4: Histidine [18] = target: T1, Mouse Id4: Histidine; assay: ELISA, coated antigen, Ab 0.005 ug/ml
Human Id2: Histidine [19] = target: T3, Human Id2: Histidine; assay: ELISA, coated antigen, Ab 0.005 ug/ml
Mouse Id2: Histidine [20] = target: T4, Mouse Id2: Histidine; assay: ELISA, coated antigen, Ab 0.005 ug/ml
Human Id3: Histidine [21] = target: T5, Human Id3: Histidine; assay: ELISA, coated antigen, Ab 0.005 ug/ml
Human Id4: Histidine [22] = target: T6, Human Id4: Histidine; assay: ELISA, coated antigen, Ab 0.005 ug/ml
Mouse Id3: Histidine [23] = target: T7, Mouse Id3: Histidine; assay: ELISA, coated antigen, Ab 0.005 ug/ml

A450 (Mouse Id4: Histidine [1]) [A450]	A450 (Mouse Id1: Histidine [2]) [A450]	A450 (Human Id2: Histidine [3]) [A450]	A450 (Mouse Id2: Histidine [4]) [A450]	A450 (Human Id3: Histidine [5]) [A450]	A450 (Human Id4: Histidine [6]) [A450]	A450 (Mouse Id3: Histidine [7]) [A450]	A450 (Mouse Id4: Histidine [8]) [A450]	A450 (Mouse Id1: Histidine [9]) [A450]	A450 (Human Id2: Histidine [10]) [A450]	A450 (Mouse Id2: Histidine [11]) [A450]	A450 (Human Id3: Histidine [12]) [A450]	A450 (Human Id4: Histidine [13]) [A450]	A450 (Mouse Id3: Histidine [14]) [A450]	A450 (Human Id2: Histidine [15]) [A450]	A450 (Human Id4: Histidine [16]) [A450]	A450 (Mouse Id3: Histidine [17]) [A450]	A450 (Mouse Id4: Histidine [18]) [A450]	A450 (Human Id2: Histidine [19]) [A450]	A450 (Mouse Id2: Histidine [20]) [A450]	Substance	other results
0.045	0.424	0.054	0.048	0.048	0.046	0.047	0.049	2.79	0.072	0.057	0.053	0.048	0.051	0.058	0.046	0.05	0.047	0.048	0.052	rabbit monoclonal anti-mouse/human Id1, clone #BCH-1/#195-14 (antibody)	A450 (Human Id3: Histidine [21]): 0.047 A450; A450 (Human Id4: Histidine [22]): 0.044 A450; A450 (Mouse Id3: Histidine [23]): 0.048 A450
0.043	0.068	0.046	0.049	0.044	0.045	0.048	0.05	0.151	0.062	0.049	0.052	0.056	0.05	0.049	0.046	0.058	0.045	0.049	0.048	rabbit monoclonal anti-human Id1, clone #BCH-2/#5-3 (antibody)	A450 (Human Id3: Histidine [21]): 0.048 A450; A450 (Human Id4: Histidine [22]): 0.049 A450; A450 (Mouse Id3: Histidine [23]): 0.047 A450
